From a protein production outcome set (Wang et al. 2014)

Test: label from the status in PepcDB records

Row | Sequence | protein production
1 | MKVLITDFDLFAKVGGGQTFYRSLIRKNPDIDFYYLIDKEARVTERPDNAHGVPFQEKYFLADLNNFFDVNPPKWVYRSFIRASNIATSVAGMEFDLIDSPDYEQWAIFLRPALDYHRVKFAKIALSLHGKISTTLKLDWFNQGKENIPLELEEWKQYATVDLRYGISKSYIDEWQSLSRFSAHYYHPLHFFELPQPLEAIASGDRPDLNFVGRTEKRKGPDIFIDIAWWLNRNLYHEANIIGPHSFNDTGTISSETYLRSMLGDRQSPVKFLPPKPQQELMGLFARKTVTFVPSRYDTLNLVALESLFSGCPTVVGGGAGVCRLLKEDFPDVPFVEIDLDNIYSCLPAIENILSDYNNYRRRLVDSVKNSTAIADSPILADIYQQTGQYEEEIRDELQSWYGQLMGYWVSTQENVSFLQPLKAQLKPTLKQIKNNLKSTAGQLKGKILQPLADDRNAQLVKAPNLLKKYKEAFNATEQTAKDLAEKIQMGWRLGSGYESEFQGVRGKLATNYRIDRVRLWRELARIEELRGNTLVSATYKVRALRALGSDQFGDLPFVLRTLTEYGFPKEMAAVSALYGQPSEREERCLSLIEQARLDNLANPAGDEYEIWDDRRGDGPYRASIIVSLYNAAAKLPLFLKTLQHQTLIKRGEAEVVLVDSGSPGNEYEVFKDLAPTLGYPLLYARSPQRETIQSAWNRGIKLAKSPYLAFLGVDETILPDCLEILAGELDQDPELDWAIGHSLVTNVDMQGGWVSDIMPYDRTGYEQDLVYLETCYLSWVGALYRKSIHERFGYYDQSFRGAGDTEFKNRVMPFIKSKVVDKMLGLFWNYPDERTTQSPATEIEDMRAWYLHRTLAGVKYAFQRRSPREVENLLYHCLGYRKSYCKHTSTDFDHAHNLVTYLEKVDPNAEALKYAPGIEALLGTYRSLDWLPKLSKFSPLNSMLTARKLTKQWEQEHQQSWPEDRLFSPHYSIFNDNRHEQHSFLWFTDITASKK | failed
2 | MKVLLIIPAYNEEENILRTIASIETFKQEVTHFQHELDYVVINDGSTDGTKQILEANQINAIHLVLNLGIGGAVQTGYKYALENEYDVAVQFDGDGQHDINSLPILLEPLAEGKCDFSIGSRFIPGNEASFQSTKMRRFGIRLLSFCIRMASGKTIYDVTSGYRAGNRKVIAFFAKRYPTNYPEPESIVHLIKKRFVIVERPVNMMERLGGVSSIRALASVKYMLEVGSAILIAAFMKEGDLEHHHHHH | not failed
3 | MKVLTVVIPCYNSAEYMDRAIESLLIGDEELEILIVNDGSMDNTSIIADEYEKKYPNTIRVIHKENGGHGDAINTGLKHSKGVYFKVLDSDDWFDKASLKKVLEVLKNMIKDSKSLDMLISNYVYENFSINKSRSINYKGAMPKEKIFTWDSLGHLKSSQNILMHSVIYRTELLRECNLDLPKHTFYVDNIFVYKPLPYVKTMYYLDVDLYRYFIGREDQSVNEKVMIKRIDQQIKVTKILIDCYNPMLLNCKKLRKYMVKYLVMMMTVSTVLLIKDNTEQSLNKKRELWSYLHSKNRKLYFEVNKSFLGLLIQIKGFVGRKIILLGYSLSRKVFGFNLEHHHHHH | failed
4 | MKVNILMATYNGEKFLAQQIESIQKQTFKEWNLLIRDDGSSDKTCDIIRNFTAKDSRIRFINENEHHNLGVIKSFFTLVNYEVADFYFFSDQDDVWLPEKLSVSLEAAKHKASDVPLLVYTDLKVVNQELNILQDSMIRAQSHHANTTLLPELTENTVTGGTMMINHALAEKWFTPNDILMHDWFLALLAASLGEIIYLDLPTQLYRQHDNNVLGARTMDKRFKILREGPKSIFTRYWKLIHDSQKQASLIVDKYGDIMTANDLELIKCFIKIDKQPFMTRLRWLWKYGYSKNQFKHQVVFKWLIATNYYNKRLEHHHHHH | not failed
5 | MKVPEAAISRLITYLRILEELEAQGVHRTSSEQLGELAQVTAFQVRKDLSYFGSYGTRGVGYTVPVLKRELRHILGLNRKWGLCIVGMGRLGSALADYPGFGESFELRGFFDVDPEKVGRPVRGGVIEHVDLLPQRVPGRIEIALLTVPREAAQKAADLLVAAGIKGILNFAPVVLEVPKEVAVENVDFLAGLTRLSFAILNPKWREEMMG | not failed
6 | MKVPKYQLIQNDLRQQIVSGKFENGDKFYTESELTKLFNVSSITVIRAVNELVKDGYLVRQQGKGTFVSRSRKGRLVEFSDIEIFPMDKDKVTVLSCEKGNKPDILEKLNLDKNEFYYKIVRVRAAEDTPYIFHNSYIPQRYIQNPDAPLEHYQSIYQRFKLDYNIHMSEEPFVETNEIVSPCPKEVATHLKLKATEPAVLQNKTTTNSTSGEVMEYTETYKHWKYYKFEITANHR | not failed
7 | MKVSILIITYNHSHFIAQAIESVLMQKVKFEYEIVIGEDSSTDNTRQILLDYQKQYSDKIRLLLPEKNLGMHRNFVNTLQACRGEYIAILEGDDYWIADDKLQKQVEFLDENPDFTICFHNVMVFHEDNQYQPYIFLHNQPTVSYIEDLLIRNFISTPSVMYRNGLVESIPTWFYEQGMGDWIFHILNAQYGKIGYIDEVMSAYRIHVQGVWSSKSRDWQLKETIRMLDTIKSNVNVRYAEIIDRAVQFYSEQLLYLVPESQEVTPVLNTSLPNYLQIKDINFIAFPDWNQPEELLYQSLYYAIKLFLTHPENNKIALFIDTTDISEEDADIYISSTLMNLMLEEELEESHKINVFLIGELDQIQWQTLLSFLKARIVLPSENLDAILASGTAIIPCLTVEQLIEFDLTFIESAKPYKLNIGCGNVRFHGWINIDIEQNYKTVDLVCDARQKLPFNDNSCDLIYNEHFLEHLTLEEGLFFLKECHRILKPEGILRIAMPSLEYVVQKYMSDDWRNQEWLNYPEYQFIKTRAEMLNIAMRWWGHQWLYDTEELHRRLTESGYINVQNFAWGKSNTPDLRNRETRVDSILICESQALK | failed
8 | MKVTDVRLRKIQTDGRMKALVSITLDEAFVIHDLRVIEGNSGLFVAMPSKRTPDGEFRDIAHPINSDMRQEIQDAVMKVYDETDEVVPDKNATSEDSEEA | not failed
9 | MKVYLHFSPQFFANTYLIGNEITKEAVIIDPAKITEKMIHQIEKNEFNLKAVLLTHDLEHPYETGLNTILKIYSPKVYAGSCFSENVTINTLRGDGCIDVAGYSVRYFAIPAHSSYSYMFQIENMVFTGTSLSAGMIGQTSNMYAERTLRNILKTKLMCFEDNLIIMPFYGPPTSIGVERKYNASFFQDLEHHHHHH | failed
10 | MKVYVVVPTYNESDNIVALMEKILAQRDNIHVLVVDDNSPDGTGEIAARMSSDNPRIHVLRRSGKMGLGSAYCDGFRVALRDGADFIIEMDADFSHDPATIPALLAATDKYDVVVGSRYLNGVSVVNWPIRRLMLSYFASVYTRFVTGLALRDCTSGFKCFRRRVIESVDLDTIRSDGYSFQIEMNYRCVERGFRVGEIPIIFIDRHAGSSKMSKKIVREAVLMVWKLKLGSLVKKLTRRGDRHAALEHHHHHH | not failed
11 | MKWILAVGLLSCSVAMAQQQSDILSVSASANAENAALAFDRNVKTMWTIPSQALKAEQWLMFTIQQPGDVCELDLQMQGINKNELKEVLDIFVTYDPMNLGTPVNYRIEGSDKQMKVKFTPKYGAHVKLNFKSGKLDKPFSLKEISVLVAEKVLTDSQGKVTDRRYMDASLPVEERVESLLAVMTPEDKMELIREGWGIPGIPHLYVPPITKVEAVHGFSYGSGATIFPQALAMGATWNRKLTEEVAMVIGDETVAANTKQAWSPVLDVAQDARWGRCEETFGEDPVLVSQIGGAWIKGYQSRGLFTTPKHFGGHGAPLGGRDSHDIGLSEREMREIHLVPFRHAIRNYDCQSLMMAYSDYMGVPVAKSKELLQQILRQEWGFNGFIVSDCGAIGNLTARKHYTAKDKIEAANQALAAGIATNCGDTYNNKEVIQAAKDGRINMEDLDNVCRTMLGTMFRNELFEKNPCKPLDWKKIYPGWNSDSHKEMARQAARESIVMLENKDNLLPLSKTLRTIAVLGPGADDLQPGDYTPKLLPGQLKSVLTGIKGAVGKQTKVLYEQGCDFTNPDETNIPKAVKAASQSDVVIMVLGDCSTSEATNDVRKTCGENNDWATLILPGKQQELLEAVCATGKPVILILQAGRPYDILKASEMCKAILVNWLPGQEGGPAMADVLFGDYNPAGRLPMTFPRHVGQLPLYYNFKTSGRRYEYVDMEYYPLYRFGFGLSYTSFEYSNLKIQEKANGNVEVQATVKNVGSRAGDEVAQLYVTDMYASVKTRVMELKDFARIHLQPGESKTVSFEMTPYDISLLNDRMDRVVEKGEFKIMVGGMSPDYVAKNEIKHSVGYSDNKKGVTGMLNYTHEFGANFDLAVSKVEENLVKNQKTVWVSVKNTGTLMDIGKVEMFVDGKKVGDAVHYELGAGEEKLIPFKLAKENKQPVAFTTKYKMVSM | failed
12 | MKWLKHFQSLHTKLVIVYVLLIIIGMQIIGLYFTNSLEKELTQTFKNNISQYAKQIEINIEKVYDEDNAINAQKEVQNLLNEYANRQEIEEIRFIDKDQIIMATSKQSTRSLINQKANDNSIQKALSLGEINSHTVLKDYGNGKQRVWVYNLPVKTSNDGTIGDVYIEADINDVYNQLSNINQIFIVGTGISLLITVILGFFIARTITKPITDMRNQTVEMSKGNYTQRVKIYGNDEIGELALAFNNLSKRVQEAQANTESEKRRLDSVITHMSDGIIATDRRGRVRIVNDMALTMMGTMKEDIIGDHMLKVLKLEEDFSLDEIQENNDSFLLDINENEGIIARVNFSTIVQETGFVTGYIAVLHDVTEQQQVERERREFVANVSHELRTPLTSMNSYIEALESGAWKDGELAPQFLSVTREETERMIRLVNDLLQLSKMDNESEQITKEIVDFNMFINKIINRHEMSAKDTTFVREVPTETIFTEIDPDKMTQVFDNVITNAMKYSRGDKRVEFHVKQNALYNRMTIRVKDNGIGIPINKVDKIFDRFYRVDKARTRKMGGTGLGLAISKEIVEAHNGRIWANSVEGQGTSIFITLPCEVLEDGDWDAE | failed
13 | MKWPWWPVCVPLSKRLTLPLPSTANPVVQPSRLALACANRLFEAADNRERFLQALMTPPAYPATVLWCGEPAAALPFAALPPLPWQPPWVSRFVAGSPTGQHPLHAAGAYYCLDSSSVFAAVPLLTLPQEPSLVIDVCAAPGGKSLFAWRSLHPRYLICNETIGKRVGKLIGNLKRCRVHPVGVTSWDSEVLAAEFQGTADVVIVDAPCSGQSLLAKGQKAEGCFHPLTIRHNQRRQKRILAAATTLVRPGGWLLYSTCTFSQDENEDVAAWLMAKFPHLLPQPVPALAAYQSHLAAFPCYRLWPHQGEGAGAFTILWQHQGLEHHHHHH | not failed
14 | MKWTTANTKHVNYTAKHELYVGTHTGSFKHLVPASEKTPYGQSNLSDLCALDKDSRVTSLAFGNDDQTEILLGRAKDAVEIHSFTEKGHSRNTVSFNAAPIVGLARYNDKLIAGIGNGEIQSLELEANDESEPVVIATGDQMDHLRQCAQVKSIVATGGKERQNNLKVYDLNADGKQIFTSKNLPNDYLQLEVPVWDSDIGFVDGPSVLATCSRTGYVRIYDTRKQRRPVACFASEEHGMSFTTLVAKGNFIYTGTTMGALKAFDTRRMKTHVHTYKGFTGGISDLHLDATGRFLSSASLDRYVRIHDSETTVLLYQCYVKSKATKILIRPFENEARVTEEPEEVADLQMDRNVSENKSVNATSVDNEYEDMFDQMPTVGDSDNESEEEMSNIKLSKADLKRRSSEKSLKNKKKKVVIS | failed
15 | MKYTYKQIWLINFPVMMSILMEQLINITDAVFLGHVGEIELGASALAGIYYLAIYMLGFGFSIGLQVMIARRNGEQHYKETGRTFFQGLYFLMVMAIMLCLLIHLVSPFILQQLITSDEIYQAVIRYLNWRSFGLLFSFPFLAFRAFLVGVTNTKLLSGAALTAVCINIPFNYLLIFKLDMGISGAAMASSIAEFGAFLILLLYMCKTVDKKKYGLSAVYDGRLLMKLLQLSVWSMLHAFISVAPWFLFFVAIEHLGKTELAISNITRSVSTLFFVIVNSFASTTGSLVSNLIGGGQGKELFPVCRKVLRLGYVVGLPLILTALWGNQWIIGFYTNNDYLVKLAFWPFIVMLLNYVFALPGYVYINAVTGTGKTRLAFVFQLVTILIYLIYLYLLSECFHASLTVYMTAEYLFVILLGIQSILYLKRKSKQNMYFCTFND | failed
